How the values were obtained:
DPPIV/V5/His (human) = DPPIV/V5/His (human) (UniProt P27487); assay: cell-based or functional assay
DPP8/V5/His (human) = DPP8/V5/His (human) (UniProt Q6V1X1); assay: cell-based or functional assay
Sequence of DPP8/V5/His (human) (Q6V1X1 17-898): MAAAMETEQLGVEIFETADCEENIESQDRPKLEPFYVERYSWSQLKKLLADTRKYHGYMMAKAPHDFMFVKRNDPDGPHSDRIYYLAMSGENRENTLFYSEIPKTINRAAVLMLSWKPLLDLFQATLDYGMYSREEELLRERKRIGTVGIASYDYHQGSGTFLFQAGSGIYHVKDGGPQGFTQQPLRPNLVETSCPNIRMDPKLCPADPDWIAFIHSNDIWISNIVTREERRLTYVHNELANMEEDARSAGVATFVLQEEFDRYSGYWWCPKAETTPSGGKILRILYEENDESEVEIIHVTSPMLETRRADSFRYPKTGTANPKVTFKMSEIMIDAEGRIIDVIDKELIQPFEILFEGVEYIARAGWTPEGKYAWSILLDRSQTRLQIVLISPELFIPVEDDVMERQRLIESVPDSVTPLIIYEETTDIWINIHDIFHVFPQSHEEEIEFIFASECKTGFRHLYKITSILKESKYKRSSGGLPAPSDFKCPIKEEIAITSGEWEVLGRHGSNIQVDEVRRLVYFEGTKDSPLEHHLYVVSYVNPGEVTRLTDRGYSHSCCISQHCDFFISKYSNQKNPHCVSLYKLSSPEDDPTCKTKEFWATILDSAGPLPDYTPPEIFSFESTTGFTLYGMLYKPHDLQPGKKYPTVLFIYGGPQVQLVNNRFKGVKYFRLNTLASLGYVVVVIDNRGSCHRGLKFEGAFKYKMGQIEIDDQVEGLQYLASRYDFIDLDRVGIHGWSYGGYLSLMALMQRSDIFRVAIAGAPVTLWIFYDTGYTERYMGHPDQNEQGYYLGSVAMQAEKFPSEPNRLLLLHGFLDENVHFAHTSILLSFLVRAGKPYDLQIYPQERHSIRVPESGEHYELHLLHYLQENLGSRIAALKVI

Sequence of DPPIV/V5/His (human) (P27487 whole entry, form in doubt): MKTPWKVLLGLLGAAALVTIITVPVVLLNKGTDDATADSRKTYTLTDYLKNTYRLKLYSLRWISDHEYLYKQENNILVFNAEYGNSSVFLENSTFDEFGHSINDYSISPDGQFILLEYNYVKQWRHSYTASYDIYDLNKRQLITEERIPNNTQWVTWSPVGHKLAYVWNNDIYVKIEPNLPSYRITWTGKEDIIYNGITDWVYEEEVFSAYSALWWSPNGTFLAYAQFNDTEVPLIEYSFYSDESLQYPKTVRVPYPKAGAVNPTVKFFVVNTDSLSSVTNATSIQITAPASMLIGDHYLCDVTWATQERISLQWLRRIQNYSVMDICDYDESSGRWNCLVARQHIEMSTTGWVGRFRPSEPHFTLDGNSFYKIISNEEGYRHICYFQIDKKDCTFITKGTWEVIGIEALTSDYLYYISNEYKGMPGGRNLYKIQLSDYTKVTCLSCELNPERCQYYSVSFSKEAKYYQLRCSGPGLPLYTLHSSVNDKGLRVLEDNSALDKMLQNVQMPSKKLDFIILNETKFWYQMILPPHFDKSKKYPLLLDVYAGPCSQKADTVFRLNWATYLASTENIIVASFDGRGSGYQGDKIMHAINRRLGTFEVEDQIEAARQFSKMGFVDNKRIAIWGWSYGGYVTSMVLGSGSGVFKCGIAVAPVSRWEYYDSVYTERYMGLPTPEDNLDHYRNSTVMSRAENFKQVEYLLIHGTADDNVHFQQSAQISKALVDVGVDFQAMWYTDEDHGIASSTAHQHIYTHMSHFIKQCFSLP

Substance: Ala-Pro-Gly (peptide)
- Residual activity (% of control), H-Gly-Pro-pNA hydrolysis, peptide at 10 mM (DPPIV/V5/His (human)): 67 % of control
- Residual activity (% of control), H-Ala-Pro-pNA hydrolysis, peptide at 10 mM (DPP8/V5/His (human)): 51 % of control
